Experimental data published in article PMC2635961.

Molecular target: each recombinant exocyst subunit
Assay: pull-down; MBP or MBP-tagged proteins immobilised on amylose resin; equimolar purified Sec10(145–827) (1 µM) added; 10 mM HEPES pH 7, 100 mM NaCl, 0.1% NP-40, 1 mM DTT; 1 h at 4°C; three washes; Western blot with α-His5 and α-MBP

percent bound: 10 to 20%
B1: Sec10(145–827) (domain or fragment)
chain: GDKLETAIKKKQNYIQSVELIRRYNDFYSMGKSDIVEQLRLSKNWKLNLKSVKLMKNLLILSSKLETSSIPKTINTKLVIEKYSEMMENELLENFNSAYRENNFTKLNEIAIILNNFNGGVNVIQSFINQHDYFIDTKQIDLENEFENVFIKNVKFKEQLIDFENHSVIIETSMQNLINDVETVIKNESKIVKRVFEEKATHVIQLFIQRVFAQKIEPRFEVLLRNSLSISNLAYVRILHGLFTLFGKFTKSLIDYFQLLEIDDSNQILSTTLEQCFADLFSHYLYDRSKYFGIEKRSLEAILVDMTSKFTVNYDKEINKRVLLDKYKEKLSTNVDAFMHSPRGNTHSRQDSTSRSKLSQFNSFLKTHLDKDHLSLNRTNTLSDSFNNSSSSTQYDVANNSSSLVNSSFTASDIDNSPNSPANYSLNDVDSMLKCVVESTARVMELIPNKAHLYILEILKIMFLGIVDSYMEIALEVAYWKICKVDINKTAGVVNLNFLKFISMSTEILDLLSISIKSIFLPLLNNSPEIKAQIIEMTNSQIQKMEILINIILQETITVISTKFSAILCKQKKKDFVPKSQELLDQDTLPAIEIVNILNLIFEQSSKFLKGKNLQTFLTLIGEELYGLLLSHYSHFQVNSIGGVVVTKDIIGYQTAIEDWGVASLIDKFATLRELANLFTVQP
